As a reminder, the IC50 is the concentration that gives 50% inhibition. In general, EC50 (read off the curve) refers to the midpoint of the concentration-response curve. A higher EC50 (read off the curve) goes with a less potent agent. What is called Kd is the equilibrium constant for the complex coming apart. Usually koff stands for the rate constant with which the complex falls apart. A word on the kon: it is the second-order rate constant of association. The term EC50 denotes the concentration needed to bring the measured effect to its halfway point.

The values below come from US7501496.

Experiment [1] concerns the target human OX40L expressed on cells (K562-hOX40L cells; HUVEC) (human) (UniProt P23510). In words: cell-based or functional assay.
For experiment [2] the target is unchanged. In words: FACS on HUVEC; TAG-34 10 µg/ml 24 h, no restaining, secondary anti-murine IgG-Alexa488 (down-modulation of hOX40L).
The target of experiment [3] is Recombinant soluble human OX40L fused to a Histidine tag (human) (UniProt P23510). As to the kind of experiment: SPR competition; hOX40L-His (10 nM) preincubated with antibody (0.78-100 nM), injected over immobilized OX40-hFc.
For experiment [4], the target named is human OX40L expressed on cells (K562-hOX40L cells; HUVEC) (human) (UniProt P23510). As to the kind of experiment: FACS on HUVEC; <KLH> 2.5 h, then staining with TAG-34, secondary anti-murine IgG-Alexa488.
For experiment [5] the target is unchanged. In words: flow cytometry on K562-hOX40L cells, FITC rabbit anti-mouse IgG. (Flow cytometry measures light scatter and fluorescence of single cells or particles in a stream.)
The target is the same in experiment [6]. As to the kind of experiment: FACS on HUVEC; TAG34 10 µg/ml 2.5 h, restaining with TAG-34, secondary anti-murine IgG-Alexa488 (down-modulation of hOX40L).
The target is the same in experiment [7]. In words: FACS on HUVEC; media control 2.5 h, then staining with TAG-34, secondary anti-murine IgG-Alexa488.
For experiment [8] the target is unchanged. In words: FACS on HUVEC; TAG-34 10 µg/ml 2.5 h, no restaining, secondary anti-murine IgG-Alexa488 (down-modulation of hOX40L).
Experiment [9] has the same target. In words: FACS on HUVEC; <KLH> 24 h, then staining with TAG-34, secondary anti-murine IgG-Alexa488.
Experiment [10] has the same target. As to the kind of experiment: blocking FACS on K562_OX40L cells: antibody as competitor, blocked ligand Dig-labelled hOX40:hFc, read with anti-digoxigenin-fluorescein.
The target is the same in experiment [11]. As to the kind of experiment: FACS on HUVEC; TAG34 10 µg/ml 24 h, restaining with TAG-34, secondary anti-murine IgG-Alexa488 (down-modulation of hOX40L).
Experiment [12] shares this target. In words: FACS on HUVEC; media control 24 h, then staining with TAG-34, secondary anti-murine IgG-Alexa488.
The target in experiment [13] is Recombinant soluble human OX40L fused to a Histidine tag (human) (UniProt P23510). As to the kind of experiment: SPR, Biacore 3000; antibody captured via anti-Fcγ on CM5, hOX40L-His as analyte, 1:1 Langmuir fit.
The target of experiment [14] is activated C3c (generated via activation of C3, from human pooled serum) (human) (UniProt P01024). As to the kind of experiment: cell-based or functional assay.
The target in experiment [15] is human OX40L expressed on cells (K562-hOX40L cells; HUVEC) (human) (UniProt P23510). In words: FACS on HUVEC; <KLH> 10 µg/ml 2.5 h, no staining antibody, secondary anti-human IgG-Alexa488 (media control 5.17).
Experiment [16] addresses complement factor C1q (recombinant C1q) (human) (UniProt P02745). In words: ELISA; coated antibody, recombinant C1q, maximum binding at 10 µg/ml.
In experiment [17] the target is human OX40L expressed on cells (K562-hOX40L cells; HUVEC) (human) (UniProt P23510). As to the kind of experiment: FACS on HUVEC; <KLH> 10 µg/ml 24 h, no staining antibody, secondary anti-human IgG-Alexa488 (media control 5.39).
Experiment [18] has as its target complement factor C1q (recombinant C1q) (human) (UniProt P02745). As to the kind of experiment: ELISA; plate coated with serially diluted antibody, recombinant C1q added, anti-C1q detection. In general terms: In an ELISA, binding on a coated surface is turned into a signal by an enzyme label.
In experiment [19] the target is human FcγRIIb on stably transfected IIA1.6 cells (human) (UniProt P31994). As to the kind of experiment: flow cytometry on IIA1.6 cells with human FcγRIIb, maximum binding at 10 µg/ml.
Experiment [20] addresses human FcγRIIa on stably transfected IIA1.6 cells (human) (UniProt P12318). In words: flow cytometry on IIA1.6 cells with human FcγRIIa, maximum binding at 10 µg/ml.

Chain of complement factor C1q (recombinant C1q) (human) (P02745 23-245 limits assumed, chain 1 of 3): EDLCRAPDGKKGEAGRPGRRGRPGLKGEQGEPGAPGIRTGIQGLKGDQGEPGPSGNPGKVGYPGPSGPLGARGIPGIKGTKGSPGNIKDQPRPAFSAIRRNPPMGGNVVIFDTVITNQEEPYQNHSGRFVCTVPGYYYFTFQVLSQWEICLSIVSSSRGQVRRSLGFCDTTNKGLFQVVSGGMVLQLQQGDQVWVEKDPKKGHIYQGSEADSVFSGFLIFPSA
Chain of complement factor C1q (recombinant C1q) (human) (P02746 28-253 limits assumed, chain 2 of 3, further chain): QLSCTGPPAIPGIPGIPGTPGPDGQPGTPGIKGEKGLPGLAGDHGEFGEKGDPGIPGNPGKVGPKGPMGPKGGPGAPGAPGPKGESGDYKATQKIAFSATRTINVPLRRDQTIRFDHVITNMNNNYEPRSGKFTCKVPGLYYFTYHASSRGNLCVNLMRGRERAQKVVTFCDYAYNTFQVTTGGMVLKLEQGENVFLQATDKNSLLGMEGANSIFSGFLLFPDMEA
Chain of complement factor C1q (recombinant C1q) (human) (P02747 29-245 limits assumed, chain 3 of 3, further chain): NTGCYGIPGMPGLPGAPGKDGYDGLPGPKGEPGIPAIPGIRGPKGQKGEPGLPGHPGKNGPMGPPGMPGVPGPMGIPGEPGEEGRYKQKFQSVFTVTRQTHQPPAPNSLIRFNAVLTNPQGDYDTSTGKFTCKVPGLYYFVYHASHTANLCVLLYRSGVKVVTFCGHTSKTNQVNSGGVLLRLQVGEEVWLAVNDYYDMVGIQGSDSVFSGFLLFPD
Chain of activated C3c (generated via activation of C3, from human pooled serum) (human) (P01024 23-1663 limits assumed): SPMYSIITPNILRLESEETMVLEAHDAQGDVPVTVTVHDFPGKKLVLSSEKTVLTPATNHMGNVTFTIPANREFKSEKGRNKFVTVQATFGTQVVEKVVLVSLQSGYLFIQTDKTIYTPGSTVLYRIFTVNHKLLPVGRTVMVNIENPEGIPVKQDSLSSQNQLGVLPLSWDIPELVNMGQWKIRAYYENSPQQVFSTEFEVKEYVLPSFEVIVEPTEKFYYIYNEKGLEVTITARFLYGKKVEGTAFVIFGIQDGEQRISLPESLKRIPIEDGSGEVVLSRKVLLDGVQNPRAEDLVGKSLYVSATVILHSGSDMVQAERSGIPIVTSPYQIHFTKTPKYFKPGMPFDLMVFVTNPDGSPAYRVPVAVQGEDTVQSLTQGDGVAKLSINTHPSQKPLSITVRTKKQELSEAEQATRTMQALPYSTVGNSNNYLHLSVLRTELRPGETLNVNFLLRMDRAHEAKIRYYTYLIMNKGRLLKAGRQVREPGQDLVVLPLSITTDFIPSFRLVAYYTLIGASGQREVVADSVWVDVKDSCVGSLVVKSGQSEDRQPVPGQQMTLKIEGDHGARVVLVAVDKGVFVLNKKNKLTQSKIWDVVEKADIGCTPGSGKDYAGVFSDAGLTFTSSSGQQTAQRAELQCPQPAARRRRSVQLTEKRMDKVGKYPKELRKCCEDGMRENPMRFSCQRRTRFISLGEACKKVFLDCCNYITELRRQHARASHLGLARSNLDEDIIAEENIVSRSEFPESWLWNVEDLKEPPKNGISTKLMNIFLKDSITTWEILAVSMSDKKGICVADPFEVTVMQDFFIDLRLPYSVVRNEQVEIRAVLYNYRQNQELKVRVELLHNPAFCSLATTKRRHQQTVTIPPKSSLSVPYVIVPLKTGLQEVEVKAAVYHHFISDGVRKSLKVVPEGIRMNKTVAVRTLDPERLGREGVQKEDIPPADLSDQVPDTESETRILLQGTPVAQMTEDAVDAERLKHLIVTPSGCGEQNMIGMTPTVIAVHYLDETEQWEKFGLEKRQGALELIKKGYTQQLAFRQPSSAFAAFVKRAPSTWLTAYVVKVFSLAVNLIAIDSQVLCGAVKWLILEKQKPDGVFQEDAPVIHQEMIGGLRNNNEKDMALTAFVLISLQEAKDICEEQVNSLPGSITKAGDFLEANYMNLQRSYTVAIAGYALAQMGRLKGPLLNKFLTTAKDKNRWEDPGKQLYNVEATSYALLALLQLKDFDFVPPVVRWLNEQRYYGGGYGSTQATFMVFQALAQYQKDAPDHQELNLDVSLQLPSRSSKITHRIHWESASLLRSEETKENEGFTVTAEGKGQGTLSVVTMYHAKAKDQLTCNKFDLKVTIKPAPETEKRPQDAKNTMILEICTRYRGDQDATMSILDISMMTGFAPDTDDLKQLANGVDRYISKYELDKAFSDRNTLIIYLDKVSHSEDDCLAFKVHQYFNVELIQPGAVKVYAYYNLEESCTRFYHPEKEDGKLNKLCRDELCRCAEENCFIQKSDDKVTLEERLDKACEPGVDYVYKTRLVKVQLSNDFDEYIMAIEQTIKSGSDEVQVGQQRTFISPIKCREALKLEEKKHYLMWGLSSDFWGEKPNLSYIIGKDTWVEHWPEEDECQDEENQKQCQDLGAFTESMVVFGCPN
Chain of Recombinant soluble human OX40L fused to a Histidine tag (human) (P23510 51-183): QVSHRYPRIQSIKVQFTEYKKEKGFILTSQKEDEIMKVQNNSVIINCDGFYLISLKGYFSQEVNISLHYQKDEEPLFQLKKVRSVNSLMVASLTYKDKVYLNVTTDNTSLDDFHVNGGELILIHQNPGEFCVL
Chain of human OX40L expressed on cells (K562-hOX40L cells; HUVEC) (human) (P23510 whole entry): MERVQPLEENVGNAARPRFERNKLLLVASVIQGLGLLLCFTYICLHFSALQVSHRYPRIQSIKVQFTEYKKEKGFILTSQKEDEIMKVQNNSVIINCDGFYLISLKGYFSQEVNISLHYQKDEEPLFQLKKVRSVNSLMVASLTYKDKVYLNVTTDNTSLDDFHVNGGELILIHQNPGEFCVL
Chain of human FcγRIIb on stably transfected IIA1.6 cells (human) (P31994 43-310): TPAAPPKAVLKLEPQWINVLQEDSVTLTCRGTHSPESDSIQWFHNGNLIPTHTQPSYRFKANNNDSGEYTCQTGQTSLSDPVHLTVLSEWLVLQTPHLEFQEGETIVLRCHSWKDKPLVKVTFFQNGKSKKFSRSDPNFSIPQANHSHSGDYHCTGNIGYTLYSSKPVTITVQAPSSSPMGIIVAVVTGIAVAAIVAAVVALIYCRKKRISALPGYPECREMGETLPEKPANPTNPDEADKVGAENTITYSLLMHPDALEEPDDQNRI
Chain of human FcγRIIa on stably transfected IIA1.6 cells (human) (P12318 34-317): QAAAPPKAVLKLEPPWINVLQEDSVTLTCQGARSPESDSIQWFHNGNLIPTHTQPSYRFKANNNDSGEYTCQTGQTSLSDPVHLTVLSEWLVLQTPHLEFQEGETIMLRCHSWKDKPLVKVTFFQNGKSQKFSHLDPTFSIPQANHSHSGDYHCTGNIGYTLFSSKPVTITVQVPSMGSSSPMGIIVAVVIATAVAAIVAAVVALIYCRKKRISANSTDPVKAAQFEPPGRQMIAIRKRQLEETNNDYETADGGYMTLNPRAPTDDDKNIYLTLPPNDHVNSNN

For the substance “TAG34, anti-human OX40L monoclonal antibody”, in [1], the IC50, IL-2 release of PHA-activated PBL co-stimulated with K562 OX40L cells was determined as 70 nM. In addition, the MFI came to 7.39 MFI in experiment [2]; 30.8 MFI in [4]; 8.97 MFI in experiment [6]; 31.8 MFI in [7]; 9.44 MFI in experiment [8]; 31.6 MFI in experiment [9]. The MFI in experiment [11] is 14.9 MFI; in experiment [12], 25.3 MFI. Further, the IC50 in [3] is 7 nM. In addition, the EC50 (read off the curve) in experiment [5] is 2 µg/mL. The substance further registered an IC50 (read off the curve) in [10] of 1 µg/mL. Further, the Kd in [13] was found to be 0.375 nM. The koff in experiment [13] is 3.32e-05 s⁻¹. The kon in experiment [13] came to 88400 M⁻¹ s⁻¹.
As for “HuMab antibody directed against Keyhole Limpet Hemocyanin (alpha-KLH)”, in [14], the C3c deposition ELISA, Bmax (OD405) stood at 2.63 OD405 and the C3c deposition ELISA, EC50 is 2.16 µg/mL. This substance also displayed an MFI in experiment [15] of 4.76 MFI. In experiment [16], the Bmax (OD405) amounted to 3.31 OD405. The same substance returned an MFI in experiment [17] of 4.74 MFI. In experiment [18], the half-maximal effective concentration (EC50) came to 2.57 µg/mL.
The substance “human IgG4 (The Binding Site), control antibody” returned a C3c deposition ELISA, Bmax (OD405) in experiment [14] of 0.095 OD405. Further, the Bmax (OD405) in [16] came out at 0.353 OD405.
As to “human IgG3 (The Binding Site), control antibody”, the Bmax (MFI) in [19] was 419 MFI; in [20], 537 MFI.
Turning to “Human IgG1 (The Binding Site), control antibody”, in experiment [14], the C3c deposition ELISA, Bmax (OD405) was 2.54 OD405 and the C3c deposition ELISA, EC50 came to 5.45 µg/mL. Further, the Bmax (OD405) in [16] was 2.69 OD405. The EC50 in [18] amounted to 4.17 µg/mL.
